In article PMC10287910:

Experiments:
[1] = tested on: ParA2 (Vibrio cholerae); assay: EMSA
[2] = tested on: ParA2 K124E (Vibrio cholerae); assay: EMSA
[3] = tested on: ParA2 K124Q (Vibrio cholerae); assay: EMSA
[4] = tested on: ParA2 K124R (Vibrio cholerae); assay: EMSA
[5] = tested on: ParA2-GFP (Vibrio cholerae); assay: EMSA
[6] = target: ParA2 ATPase (wild type), Vibrio cholerae chromosome 2 (Vibrio cholerae); assay: SEC-MALS; 40 uM ParA2 alone or pre-incubated with ADP or ATP; Superdex 200 10/300 GL; 50 mM Tris-HCl pH 7.5, 100 mM NaCl, 5.0 mM MgCl2, 0.1 mM EDTA, 1.0 mM DTT, 1.0 mM NaN3; monomer to dimer
[7] = target: ParA2 ATPase (wild type), Vibrio cholerae chromosome 2 (Vibrio cholerae)

**Q.** For “CGAGGTCGACGGTATCGATAAGCTTGATATCGAATTCCTGCAGCCCGGGGGATCCACTAGTTCTAGAGC (double strand) [Cy3-69 bp nsDNA]”, which Kd [1] is on record?
**A.** 1000 nM

**Q.** And the Kd [2]?
**A.** 452 nM

**Q.** What about the Kd [3] of the same substance?
**A.** 138 nM

**Q.** And the Kd [4]?
**A.** 47.1 nM

**Q.** And the Kd [5]?
**A.** 40 nM

**Q.** “ParA2 ATPase (wild type), Vibrio cholerae chromosome 2 (enzyme)” was tested. Which stoichiometry N [6] did it give?
**A.** 2

**Q.** Which results are given for “ParB2, Vibrio cholerae chromosome 2 (natural protein)”?
**A.** pre-steady state ATP hydrolysis rate of ParA2 (1.5 uM), stimulation by ParB2 at equimolar concentration [7]: 3 fold; pre-steady state ATP hydrolysis rate of ParA2 (1.5 uM), stimulation in the presence of both DNA and ParB2 [7]: 8 fold
